# Data from patent US20190367615A1 (BEIJING HANMI PHARM, published 2019).
# Changes are numbered by the printed parent chain. Names and notes keep the numbering of the source.
# B1: murine anti-human PD-1 monoclonal antibody secreted by Clone No. 2 (antibody, V domains shown)
# VH: EVQLQESGGGLVKPGGSLKLSCAASGFTFSSYGMSWVRQTPEKRLEWVASISGGGRYTYYPDSMKGRFTISRDNAKNNLHLQMSSLRSEDTALYYCVYEYFYTMDYWGQGTSVTVSS
# VL: DIVLTQSPATLSVTPGDSVSLSCRANQSISNNLHWYQQRSHESPRLLIRFASQSISGIPSRFSGSGSGTDFTLSINSVETEDFGMYFCQQSDNWPLTFGAGTKLEIK
# notes: Hybridoma culture supernatant; Clone No. 2 is the only clone named, so the tie is implicit
# B2: BMIV (antibody, human IgG4 S228P, kappa, V domains shown)
# VH: B1 VH with Q3N, Q5V, K13Q, K19R, E42G, R44G, A75S, S88A, L93V, S112L
# VL: DVVLTQSPATLSVSPGERVTLSCRANQSISNNLHWYQQKSHQSPRLLIRFASQSISGIPARFSGSGSGTDFTLTISSVETEDFGVYFCQQSDNWPLTFGGGTKLEIKR
# B3: AH00291 (antibody, human IgG4 S228P, kappa)
# heavy: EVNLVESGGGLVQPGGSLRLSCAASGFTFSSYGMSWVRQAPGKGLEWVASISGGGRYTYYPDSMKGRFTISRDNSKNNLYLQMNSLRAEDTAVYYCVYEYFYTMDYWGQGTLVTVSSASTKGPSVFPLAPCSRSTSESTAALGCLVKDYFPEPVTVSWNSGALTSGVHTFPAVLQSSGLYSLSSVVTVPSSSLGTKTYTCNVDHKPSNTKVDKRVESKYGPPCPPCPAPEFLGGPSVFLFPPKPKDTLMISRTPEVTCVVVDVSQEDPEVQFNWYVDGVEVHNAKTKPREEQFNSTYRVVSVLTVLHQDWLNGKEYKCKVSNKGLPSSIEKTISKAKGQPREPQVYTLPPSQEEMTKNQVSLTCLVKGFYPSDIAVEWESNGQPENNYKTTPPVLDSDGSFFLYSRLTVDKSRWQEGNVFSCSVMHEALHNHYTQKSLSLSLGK
# light: DIVLTQSPATLSLSPGERATLSCRANQSISNNLHWYQQKPGQAPRLLIRFASQSISGIPARFSGSGSGTDFTLTISSLEPEDFAVYFCQQSDNWPLTFGGGTKVEIKRTVAAPSVFIFPPSDEQLKSGTASVVCLLNNFYPREAKVQWKVDNALQSGNSQESVTEQDSKDSTYSLSSTLTLSKADYEKHKVYACEVTHQGLSSPVTKSFNRGEC
# notes: also called humanized anti-human PD-1 monoclonal antibody AH00291
# B4: AH00294 (antibody, human IgG4 S228P, kappa)
# heavy: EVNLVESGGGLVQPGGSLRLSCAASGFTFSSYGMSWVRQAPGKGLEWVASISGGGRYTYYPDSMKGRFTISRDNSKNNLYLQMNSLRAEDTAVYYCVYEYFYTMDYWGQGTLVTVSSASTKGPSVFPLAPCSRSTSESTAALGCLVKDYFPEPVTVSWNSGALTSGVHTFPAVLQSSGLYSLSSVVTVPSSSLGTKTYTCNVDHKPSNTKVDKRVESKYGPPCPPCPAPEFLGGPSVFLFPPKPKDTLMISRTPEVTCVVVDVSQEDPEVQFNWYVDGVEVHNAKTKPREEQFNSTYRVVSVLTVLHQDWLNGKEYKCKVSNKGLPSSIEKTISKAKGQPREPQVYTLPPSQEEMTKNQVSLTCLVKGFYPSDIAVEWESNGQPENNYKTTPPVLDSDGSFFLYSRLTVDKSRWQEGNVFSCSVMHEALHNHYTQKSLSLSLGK
# light: B3 light with I2V
# notes: also called humanized anti-human PD-1 monoclonal antibody AH00294
# B5: AH00295 (antibody, human IgG4 S228P, kappa)
# heavy: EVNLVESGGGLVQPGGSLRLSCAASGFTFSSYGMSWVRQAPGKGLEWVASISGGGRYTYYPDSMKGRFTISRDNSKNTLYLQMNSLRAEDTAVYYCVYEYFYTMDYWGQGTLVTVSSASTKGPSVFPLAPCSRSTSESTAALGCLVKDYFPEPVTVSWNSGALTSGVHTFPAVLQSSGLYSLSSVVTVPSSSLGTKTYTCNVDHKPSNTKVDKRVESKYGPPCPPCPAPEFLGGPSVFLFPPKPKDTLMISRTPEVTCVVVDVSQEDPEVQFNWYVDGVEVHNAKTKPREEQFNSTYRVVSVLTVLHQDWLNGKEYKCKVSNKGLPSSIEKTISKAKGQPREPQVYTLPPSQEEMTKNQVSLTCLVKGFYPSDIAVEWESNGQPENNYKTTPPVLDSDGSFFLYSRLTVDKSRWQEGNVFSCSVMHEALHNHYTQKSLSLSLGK
# light: B3 light with D1E, I2V
# notes: also called humanized anti-human PD-1 monoclonal antibody AH00295
# B6: AH00296-N26Q (antibody, human IgG4 S228P, kappa, V domains shown)
# VH: EVNLVESGGGLVQPGGSLRLSCAASGFTFSSYGMSWVRQAPGKGLEWVASISGGGRYTYYPDSMKGRFTISRDNSKNTLYLQMNSLRAEDTAVYYCVYEYFYTMDYWGQGTLVTVSS
# VL: DIVLTQSPATLSLSPGERATLSCRAQQSISNNLHWYQQKPGQAPRLLIRFASQSISGIPARFSGSGSGTDFTLTISSLEPEDFAVYFCQQSDNWPLTFGGGTKVEIKR
# B7: AH00294-N26Q (antibody, human IgG4 S228P, kappa)
# heavy: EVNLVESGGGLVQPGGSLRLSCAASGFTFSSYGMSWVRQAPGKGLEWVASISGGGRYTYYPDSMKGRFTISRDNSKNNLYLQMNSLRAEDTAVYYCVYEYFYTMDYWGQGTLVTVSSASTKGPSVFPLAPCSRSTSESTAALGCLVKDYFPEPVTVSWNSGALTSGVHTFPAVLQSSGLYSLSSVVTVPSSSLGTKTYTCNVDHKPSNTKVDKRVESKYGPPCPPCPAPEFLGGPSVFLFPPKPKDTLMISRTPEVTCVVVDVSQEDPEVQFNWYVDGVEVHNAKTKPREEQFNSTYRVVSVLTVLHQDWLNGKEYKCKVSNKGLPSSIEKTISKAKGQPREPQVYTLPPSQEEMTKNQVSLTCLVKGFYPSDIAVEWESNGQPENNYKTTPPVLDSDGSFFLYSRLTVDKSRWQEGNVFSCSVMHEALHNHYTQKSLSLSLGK
# light: B3 light with I2V, N26Q
# B8: AH00296-N26S (antibody, human IgG4 S228P, kappa, V domains shown)
# VH: B6 VH
# VL: B6 VL with Q26S
# notes: also called AII00296-N26S
# B9: AH00291-S28A (antibody, human IgG4 S228P, kappa)
# heavy: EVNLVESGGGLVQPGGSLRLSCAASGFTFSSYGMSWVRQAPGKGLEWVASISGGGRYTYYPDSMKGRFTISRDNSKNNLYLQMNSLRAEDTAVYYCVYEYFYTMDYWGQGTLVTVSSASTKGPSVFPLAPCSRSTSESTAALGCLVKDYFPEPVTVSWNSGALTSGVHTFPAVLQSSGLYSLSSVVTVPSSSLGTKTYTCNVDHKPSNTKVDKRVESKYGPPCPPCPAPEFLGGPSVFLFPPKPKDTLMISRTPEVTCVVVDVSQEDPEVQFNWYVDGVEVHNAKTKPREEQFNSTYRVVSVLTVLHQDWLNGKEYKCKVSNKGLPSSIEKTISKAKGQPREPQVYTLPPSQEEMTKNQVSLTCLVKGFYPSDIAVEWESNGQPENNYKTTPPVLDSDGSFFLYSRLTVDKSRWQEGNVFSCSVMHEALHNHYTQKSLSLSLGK
# light: B3 light with S28A
# B10: AH00296 (antibody, human IgG4 S228P, kappa)
# heavy: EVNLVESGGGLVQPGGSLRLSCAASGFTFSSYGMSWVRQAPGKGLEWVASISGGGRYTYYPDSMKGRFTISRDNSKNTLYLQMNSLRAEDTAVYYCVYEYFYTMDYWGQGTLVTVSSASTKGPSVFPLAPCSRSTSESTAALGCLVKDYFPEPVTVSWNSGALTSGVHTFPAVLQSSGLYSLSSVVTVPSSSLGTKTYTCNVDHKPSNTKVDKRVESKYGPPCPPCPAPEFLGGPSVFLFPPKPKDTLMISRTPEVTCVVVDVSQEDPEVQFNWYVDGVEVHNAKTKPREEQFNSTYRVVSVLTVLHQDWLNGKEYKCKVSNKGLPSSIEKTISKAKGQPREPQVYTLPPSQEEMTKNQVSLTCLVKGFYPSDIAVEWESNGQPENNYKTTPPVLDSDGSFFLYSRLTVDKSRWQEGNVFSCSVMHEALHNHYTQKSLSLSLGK
# light: B3 light
# notes: also called humanized anti-human PD-1 monoclonal antibody AH00296
# B11: AH00291-N26Q (antibody, human IgG4 S228P, kappa)
# heavy: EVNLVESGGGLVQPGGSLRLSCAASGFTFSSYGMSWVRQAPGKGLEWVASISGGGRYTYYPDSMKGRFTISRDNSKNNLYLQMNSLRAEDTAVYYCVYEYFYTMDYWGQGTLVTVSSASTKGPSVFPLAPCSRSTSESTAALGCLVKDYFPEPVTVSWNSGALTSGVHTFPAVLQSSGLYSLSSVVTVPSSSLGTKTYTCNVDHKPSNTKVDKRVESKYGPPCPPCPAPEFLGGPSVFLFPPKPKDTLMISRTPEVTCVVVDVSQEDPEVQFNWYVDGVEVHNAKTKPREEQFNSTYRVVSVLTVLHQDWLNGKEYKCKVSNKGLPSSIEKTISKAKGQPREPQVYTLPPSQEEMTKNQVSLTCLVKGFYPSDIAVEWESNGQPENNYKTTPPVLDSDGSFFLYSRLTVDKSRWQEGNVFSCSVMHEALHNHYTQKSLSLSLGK
# light: B3 light with N26Q
# B12: AH00294-N26S (antibody, human IgG4 S228P, kappa)
# heavy: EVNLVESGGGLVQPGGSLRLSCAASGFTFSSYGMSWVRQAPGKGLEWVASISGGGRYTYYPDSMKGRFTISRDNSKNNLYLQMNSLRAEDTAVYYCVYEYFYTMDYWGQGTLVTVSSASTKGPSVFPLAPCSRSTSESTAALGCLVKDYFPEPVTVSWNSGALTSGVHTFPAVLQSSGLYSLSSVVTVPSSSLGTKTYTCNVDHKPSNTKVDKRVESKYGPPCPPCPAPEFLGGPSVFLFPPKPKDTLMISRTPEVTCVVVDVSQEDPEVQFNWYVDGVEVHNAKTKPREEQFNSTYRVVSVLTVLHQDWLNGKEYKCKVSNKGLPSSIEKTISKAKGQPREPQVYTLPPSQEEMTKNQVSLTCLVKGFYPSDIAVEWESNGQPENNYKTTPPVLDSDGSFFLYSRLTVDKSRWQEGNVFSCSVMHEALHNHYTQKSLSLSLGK
# light: B3 light with I2V, N26S
# B13: BMIII (antibody, human IgG4 S228P, kappa, V domains shown)
# VH: B6 VH with A40T, T78N
# VL: B2 VL with S40P, H41G, T80P
# B14: AH00294-S28A (antibody, human IgG4 S228P, kappa)
# heavy: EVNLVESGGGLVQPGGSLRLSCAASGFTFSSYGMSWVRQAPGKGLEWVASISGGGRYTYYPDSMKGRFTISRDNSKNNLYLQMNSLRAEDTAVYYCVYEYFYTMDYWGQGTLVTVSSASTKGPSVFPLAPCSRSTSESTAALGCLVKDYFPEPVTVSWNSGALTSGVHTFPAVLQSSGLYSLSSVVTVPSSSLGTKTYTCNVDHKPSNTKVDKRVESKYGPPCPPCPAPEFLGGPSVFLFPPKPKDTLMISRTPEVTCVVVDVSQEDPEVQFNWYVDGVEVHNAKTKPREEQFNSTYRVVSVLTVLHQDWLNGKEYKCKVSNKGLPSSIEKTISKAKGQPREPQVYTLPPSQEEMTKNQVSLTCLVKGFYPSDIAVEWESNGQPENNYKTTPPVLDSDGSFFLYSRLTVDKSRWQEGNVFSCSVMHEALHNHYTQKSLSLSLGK
# light: B3 light with I2V, S28A
# B15: AH00296-S28A (antibody, human IgG4 S228P, kappa, V domains shown)
# VH: B6 VH
# VL: B6 VL with Q26N, S28A
# B16: AH00298 (antibody, human IgG4 S228P, kappa)
# heavy: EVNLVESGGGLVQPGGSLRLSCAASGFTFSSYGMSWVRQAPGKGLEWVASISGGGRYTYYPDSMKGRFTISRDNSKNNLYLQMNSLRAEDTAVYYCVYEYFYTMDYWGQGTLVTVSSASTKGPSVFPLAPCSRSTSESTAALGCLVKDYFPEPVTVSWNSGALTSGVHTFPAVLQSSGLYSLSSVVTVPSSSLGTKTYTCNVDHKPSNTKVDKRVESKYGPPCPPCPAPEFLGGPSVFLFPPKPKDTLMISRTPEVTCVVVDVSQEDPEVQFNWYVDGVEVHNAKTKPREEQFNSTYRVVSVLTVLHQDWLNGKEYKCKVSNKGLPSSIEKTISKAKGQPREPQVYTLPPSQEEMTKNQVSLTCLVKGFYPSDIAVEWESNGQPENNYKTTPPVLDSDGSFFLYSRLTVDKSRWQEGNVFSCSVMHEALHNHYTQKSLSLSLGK
# light: B3 light with D1E, I2V
# notes: also called humanized anti-human PD-1 monoclonal antibody AH00298
# B17: AH00290 (antibody, human IgG4 S228P, kappa, V domains shown)
# VH: B6 VH with A49S
# VL: B6 VL with Q26N
# notes: also called humanized anti-human PD-1 monoclonal antibody AH00290
# B18: AH00291-N26S (antibody, human IgG4 S228P, kappa)
# heavy: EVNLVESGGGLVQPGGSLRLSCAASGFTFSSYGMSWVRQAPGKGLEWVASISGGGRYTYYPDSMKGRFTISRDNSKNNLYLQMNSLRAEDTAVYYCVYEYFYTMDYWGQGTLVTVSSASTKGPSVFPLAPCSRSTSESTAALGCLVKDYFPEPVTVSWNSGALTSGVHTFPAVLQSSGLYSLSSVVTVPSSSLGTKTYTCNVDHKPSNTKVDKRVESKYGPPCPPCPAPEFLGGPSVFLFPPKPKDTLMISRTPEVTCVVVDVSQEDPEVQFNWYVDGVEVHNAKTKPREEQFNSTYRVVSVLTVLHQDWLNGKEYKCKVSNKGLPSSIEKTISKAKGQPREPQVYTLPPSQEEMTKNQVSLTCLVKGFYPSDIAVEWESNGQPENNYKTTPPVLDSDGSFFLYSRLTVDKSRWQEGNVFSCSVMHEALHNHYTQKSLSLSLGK
# light: B3 light with N26S
# B19: AH00293 (antibody, human IgG4 S228P, kappa, V domains shown)
# VH: B6 VH with T78N
# VL: B6 VL with Q26N, F87Y
# notes: also called humanized anti-human PD-1 monoclonal antibody AH00293
# Target: T1, Recombinant human PD-1 (Sino Biological Inc., Catalog Number 10377-H08H) (human, UniProt Q15116 25-167)
# T1 construct: Bought protein; also called antigen PD-1
# T1 sequence (Q15116 25-167 limits assumed): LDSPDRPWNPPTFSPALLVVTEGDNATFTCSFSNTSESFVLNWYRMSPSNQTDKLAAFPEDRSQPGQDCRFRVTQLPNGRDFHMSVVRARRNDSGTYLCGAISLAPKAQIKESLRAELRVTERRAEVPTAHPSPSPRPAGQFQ
# Test: ELISA, coated recombinant human PD-1 (1 ug/mL), detection with anti-mouse IgG-HRP, OD450nm
# Description: (§1) The plate was washed five times with PBST. […] The plate was washed five times with PBST. […] The plate was washed five times with PBST. 100 μL/well of colorimetric substrate TMB was added and incubated at room temperature for 10 minutes. Color development was terminated by adding 100 μL/well of 1 M H₂SO₄. The absorbance at 450 nm was read on a microplate reader.
row,Binder,EC50 [pM]
1,B1,52

# Target: T1, Recombinant human PD-1 (Sino Biological …)
# Test: ELISA, human PD-1 coated
# Description: Recombinant human PD-1 (purchased from Sino Biological Inc.) was coated on a 96-well high-absorbing ELISA plate with a carbonate buffer solution with pH 9.6, the coating concentration was 1 μg/mL, the coating amount was 100 μL per well, and the coating was carried out at 4° C. overnight. The plate was washed five times with PBST and blocked with 300 μL/well of PBST containing 1% BSA, and then incubated at 25° C. for 1 hour. The plate was washed five times with PBST. […] The plate was washed five times with PBST. Then, horseradish peroxidase-labeled anti-human IgG antibody (Chemicon, Catalog Number AP309P) 1:2000 diluted in PBST containing 1% BSA was added, 100 μL per well, incubated at 25° C. for 1 hour. The plate was washed five times with PBST. 100 μL/well of colorimetric substrate TMB was added and incubated at room temperature for 10 minutes. Color development was terminated by adding 100 μL/well of 1 M H₂SO₄. The absorbance at 450 nm was read on a microplate reader.
row,Binder,EC50 [pM]
1,B2,28
2,B3,25
3,B4,32
4,B5,25
5,B6,44
6,B7,41
7,B8,37
8,B9,42
9,B10,27
10,B11,46
11,B12,43
12,B13,34
13,B14,47
14,B15,48
15,B16,28
16,B17,24
17,B18,39
18,B19,26

# Target: T2, Recombinant human PD-1-Fc (human, UniProt Q15116 25-167, limits assumed)
# T2 construct: also called recombinant human PD-1-Fc protein; not shown: Fc part
# T2 sequence (Q15116 25-167 limits assumed): as above
# Test: competition ELISA, coated human PD-1-Fc, blocked ligand biotin-labeled PD-L1 (final 10 nM), streptavidin-HRP, OD450nm
# Description: as §1
row,Binder,IC50 [pM]
1,B1,838

# Target: T2, Recombinant human PD-1-Fc
# Test: competition ELISA, PD-1-Fc coated, competitor biotin-labeled PD-L1
# Description: Recombinant human PD-1-Fc was coated on a 96-well high-absorbing ELISA plate with a carbonate buffer solution with pH 9.6, the coating concentration was 1 μg/mL, the coating amount was 100 μL per well, and the coating was carried at 4° C. out overnight. The plate was washed five times with PBST and blocked with 300 μL/well of PBST containing 1% BSA and incubated at 25° C. for 1 hour. The plate was washed five times with PBST. The positive control and the anti-human PD-1 antibody sample were added, 50 μL per well. […] The plate was washed five times with PBST. Then, Streptavidin-HRP (BD Pharmingen, Catalog Number 554066) 1:1000 diluted in PBST containing 1% BSA was added, 100 μL per well, incubated at 25° C. for 1 hour. The plate was washed five times with PBST. 100 μL/well of colorimetric substrate TMB was added and incubated at room temperature for 10 minutes. Color development was terminated by adding 100 μL/well of 1 M H₂SO₄. The absorbance at 450 nm was read on a microplate reader.
row,Binder,IC50 [pM]
1,B2,1300
2,B3,1100
3,B4,1350
4,B5,1190
5,B6,1270
6,B7,1490
7,B8,1070
8,B9,1360
9,B10,1210
10,B11,1570
11,B12,1480
12,B13,1200
13,B14,1460
14,B15,1760
15,B16,1220
16,B17,1090
17,B18,1430
18,B19,1200
